Test results published in patent US20240409645A1 (DUALYX, published 2024).

B1: DC00076 (other)
chain 1: QVQLVESGGGLVQAGGSLRLSCAASGIPFDNYAMGWFRQAPGKEREFVAARDLEGIITRYGDSVKGRFTISRGNAKNTVFLQMNSLKPEDTAVYYCAARDGGVVAGSRSSAQYNYWGQGTQVTVSSDKTHTCPPCPAPEAAGGPSVFLFPPKPKDTLMISRTPEVTCVVVDVSHEDPEVKFNWYVDGVEVHNAKTKPREEQYNSTYRVVSVLTVLHQDWLNGKEYKCKVSNKALGAPIEKTISKAKGQPREPQVYTLPPSRDELTKNQVSLTCLVKGFYPSDIAVEWESNGQPENNYKTTPPVLDSDGSFLLYSKLTVDKSRWQQGNVFSCSVMHEALHNHYTQKSLSLSPGK
chain 2: QVQLVESGGGLVQPGGSLRLSCATSGFTFRNNFMSWVRQAPGKGLEWVSTISYGGESTTYAESVKGRFTISRDNAKNTLYLQMNNLKPEDTAVYYCAKATSYDSIRSGSRGQGTQVTVSSGGGGSGGGGSGGGGSQVQLVESGGGLVQAGGSLTLSCAAPGRTFGTDVVGWFRQAPGKEREFVASISRSGDGIYYDDSVKGRFTISRNNAWNTVNLQMNSLKVEDTAVYYCAAGDGWSTYDYWGQGTQVTVSSGGGGSGGGGSGGGGSEVQLVESGGGLVQTGGSLRLSCAASGGTFSRDAMAWFRQVPGKEREFVALISWSGATTNYADSVKGRFAISRDNGKNTVYLQMNRLKPADTAIYYCAADRRPMGSRSYFEPTEYDDWGQGTQVTVSSGGGGSGGGGSGGGGSDKTHTCPPCPAPEAAGGPSVFLFPPKPKDTLMISRTPEVTCVVVDVSHEDPEVKFNWYVDGVEVHNAKTKPREEQYNSTYRVVSVLTVLHQDWLNGKEYKCKVSNKALGAPIEKTISKAKGQPREPQVYTLPPSRDELTKNQVSLTCLVKGFYPSDIAVEWESNGQPENNYKTTPPVLDSDGSFFLYSRLTVDKSRWQQGNVFSCSVMHEALHNHYTQKSLSLSPGK
B2: DC00078 (other)
chain 1: QVQLVESGGGLVQAGGSLRLSCAASGIPFDNYAMGWFRQAPGKEREFVAARDLEGIITRYGDSVKGRFTISRGNAKNTVFLQMNSLKPEDTAVYYCAARDGGVVAGSRSSAQYNYWGQGTQVTVSSDKTHTCPPCPAPEAAGGPSVFLFPPKPKDTLMISRTPEVTCVVVDVSHEDPEVKFNWYVDGVEVHNAKTKPREEQYNSTYRVVSVLTVLHQDWLNGKEYKCKVSNKALGAPIEKTISKAKGQPREPQVYTLPPSRDELTKNQVSLTCLVKGFYPSDIAVEWESNGQPENNYKTTPPVLDSDGSFLLYSKLTVDKSRWQQGNVFSCSVMHEALHNHYTQKSLSLSPGK
chain 2: QVQLVESGGGLVQAGGSLTLSCAAPGRTFGTDVVGWFRQAPGKEREFVASISRSGDGIYYDDSVKGRFTISRNNAWNTVNLQMNSLKVEDTAVYYCAAGDGWSTYDYWGQGTQVTVSSGGGGSGGGGSGGGGSEVQLVESGGGLVQTGGSLRLSCAASGGTFSRDAMAWFRQVPGKEREFVALISWSGATTNYADSVKGRFAISRDNGKNTVYLQMNRLKPADTAIYYCAADRRPMGSRSYFEPTEYDDWGQGTQVTVSSGGGGSGGGGSGGGGSQVQLVESGGGLVQPGGSLRLSCATSGFTFRNNFMSWVRQAPGKGLEWVSTISYGGESTTYAESVKGRFTISRDNAKNTLYLQMNNLKPEDTAVYYCAKATSYDSIRSGSRGQGTQVTVSSDKTHTCPPCPAPEAAGGPSVFLFPPKPKDTLMISRTPEVTCVVVDVSHEDPEVKFNWYVDGVEVHNAKTKPREEQYNSTYRVVSVLTVLHQDWLNGKEYKCKVSNKALGAPIEKTISKAKGQPREPQVYTLPPSRDELTKNQVSLTCLVKGFYPSDIAVEWESNGQPENNYKTTPPVLDSDGSFFLYSRLTVDKSRWQQGNVFSCSVMHEALHNHYTQKSLSLSPGK
B3: DC00077 (other)
chain 1: QVQLVESGGGLVQAGGSLRLSCAASGIPFDNYAMGWFRQAPGKEREFVAARDLEGIITRYGDSVKGRFTISRGNAKNTVFLQMNSLKPEDTAVYYCAARDGGVVAGSRSSAQYNYWGQGTQVTVSSDKTHTCPPCPAPEAAGGPSVFLFPPKPKDTLMISRTPEVTCVVVDVSHEDPEVKFNWYVDGVEVHNAKTKPREEQYNSTYRVVSVLTVLHQDWLNGKEYKCKVSNKALGAPIEKTISKAKGQPREPQVYTLPPSRDELTKNQVSLTCLVKGFYPSDIAVEWESNGQPENNYKTTPPVLDSDGSFLLYSKLTVDKSRWQQGNVFSCSVMHEALHNHYTQKSLSLSPGK
chain 2: QVQLVESGGGLVQPGGSLRLSCATSGFTFRNNFMSWVRQAPGKGLEWVSTISYGGESTTYAESVKGRFTISRDNAKNTLYLQMNNLKPEDTAVYYCAKATSYDSIRSGSRGQGTQVTVSSGGGGSGGGGSGGGGSEVQLVESGGGLVQTGGSLRLSCAASGGTFSRDAMAWFRQVPGKEREFVALISWSGATTNYADSVKGRFAISRDNGKNTVYLQMNRLKPADTAIYYCAADRRPMGSRSYFEPTEYDDWGQGTQVTVSSGGGGSGGGGSGGGGSQVQLVESGGGLVQAGGSLTLSCAAPGRTFGTDVVGWFRQAPGKEREFVASISRSGDGIYYDDSVKGRFTISRNNAWNTVNLQMNSLKVEDTAVYYCAAGDGWSTYDYWGQGTQVTVSSGGGGSGGGGSGGGGSDKTHTCPPCPAPEAAGGPSVFLFPPKPKDTLMISRTPEVTCVVVDVSHEDPEVKFNWYVDGVEVHNAKTKPREEQYNSTYRVVSVLTVLHQDWLNGKEYKCKVSNKALGAPIEKTISKAKGQPREPQVYTLPPSRDELTKNQVSLTCLVKGFYPSDIAVEWESNGQPENNYKTTPPVLDSDGSFFLYSRLTVDKSRWQQGNVFSCSVMHEALHNHYTQKSLSLSPGK
B4: DC00079 (other)
chain 1: QVQLVESGGGLVQAGGSLRLSCAASGIPFDNYAMGWFRQAPGKEREFVAARDLEGIITRYGDSVKGRFTISRGNAKNTVFLQMNSLKPEDTAVYYCAARDGGVVAGSRSSAQYNYWGQGTQVTVSSDKTHTCPPCPAPEAAGGPSVFLFPPKPKDTLMISRTPEVTCVVVDVSHEDPEVKFNWYVDGVEVHNAKTKPREEQYNSTYRVVSVLTVLHQDWLNGKEYKCKVSNKALGAPIEKTISKAKGQPREPQVYTLPPSRDELTKNQVSLTCLVKGFYPSDIAVEWESNGQPENNYKTTPPVLDSDGSFLLYSKLTVDKSRWQQGNVFSCSVMHEALHNHYTQKSLSLSPGK
chain 2: QVQLVESGGGLVQAGGSLTLSCAAPGRTFGTDVVGWFRQAPGKEREFVASISRSGDGIYYDDSVKGRFTISRNNAWNTVNLQMNSLKVEDTAVYYCAAGDGWSTYDYWGQGTQVTVSSGGGGSGGGGSGGGGSQVQLVESGGGLVQPGGSLRLSCATSGFTFRNNFMSWVRQAPGKGLEWVSTISYGGESTTYAESVKGRFTISRDNAKNTLYLQMNNLKPEDTAVYYCAKATSYDSIRSGSRGQGTQVTVSSGGGGSGGGGSGGGGSEVQLVESGGGLVQTGGSLRLSCAASGGTFSRDAMAWFRQVPGKEREFVALISWSGATTNYADSVKGRFAISRDNGKNTVYLQMNRLKPADTAIYYCAADRRPMGSRSYFEPTEYDDWGQGTQVTVSSGGGGSGGGGSGGGGSDKTHTCPPCPAPEAAGGPSVFLFPPKPKDTLMISRTPEVTCVVVDVSHEDPEVKFNWYVDGVEVHNAKTKPREEQYNSTYRVVSVLTVLHQDWLNGKEYKCKVSNKALGAPIEKTISKAKGQPREPQVYTLPPSRDELTKNQVSLTCLVKGFYPSDIAVEWESNGQPENNYKTTPPVLDSDGSFFLYSRLTVDKSRWQQGNVFSCSVMHEALHNHYTQKSLSLSPGK

Target: T1, human IL-2 receptor (IL-2Rα/IL-2Rβ/γc) (human, UniProt P01589 22-272; P14784 27-551; P31785 23-369)
T1 sequence 1: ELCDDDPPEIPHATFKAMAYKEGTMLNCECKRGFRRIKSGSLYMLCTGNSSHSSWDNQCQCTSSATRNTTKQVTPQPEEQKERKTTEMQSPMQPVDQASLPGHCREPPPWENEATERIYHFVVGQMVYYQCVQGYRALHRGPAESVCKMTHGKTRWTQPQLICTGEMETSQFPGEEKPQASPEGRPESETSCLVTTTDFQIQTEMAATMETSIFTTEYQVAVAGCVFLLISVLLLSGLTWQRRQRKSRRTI
T1 sequence 2: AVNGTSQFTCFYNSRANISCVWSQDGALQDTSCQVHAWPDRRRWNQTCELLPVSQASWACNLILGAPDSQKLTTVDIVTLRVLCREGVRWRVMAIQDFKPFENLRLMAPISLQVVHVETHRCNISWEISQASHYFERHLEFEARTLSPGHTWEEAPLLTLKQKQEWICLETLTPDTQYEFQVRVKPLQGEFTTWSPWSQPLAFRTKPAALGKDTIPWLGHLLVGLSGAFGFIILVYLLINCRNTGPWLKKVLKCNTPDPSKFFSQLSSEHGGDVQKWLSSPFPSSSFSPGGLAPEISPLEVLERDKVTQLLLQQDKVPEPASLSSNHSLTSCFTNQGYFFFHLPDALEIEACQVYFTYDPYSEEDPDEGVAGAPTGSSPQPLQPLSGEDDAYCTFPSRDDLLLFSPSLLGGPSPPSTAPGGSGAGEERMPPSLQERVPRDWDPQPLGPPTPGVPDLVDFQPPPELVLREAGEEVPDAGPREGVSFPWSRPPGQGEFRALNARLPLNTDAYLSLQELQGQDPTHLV
T1 sequence 3: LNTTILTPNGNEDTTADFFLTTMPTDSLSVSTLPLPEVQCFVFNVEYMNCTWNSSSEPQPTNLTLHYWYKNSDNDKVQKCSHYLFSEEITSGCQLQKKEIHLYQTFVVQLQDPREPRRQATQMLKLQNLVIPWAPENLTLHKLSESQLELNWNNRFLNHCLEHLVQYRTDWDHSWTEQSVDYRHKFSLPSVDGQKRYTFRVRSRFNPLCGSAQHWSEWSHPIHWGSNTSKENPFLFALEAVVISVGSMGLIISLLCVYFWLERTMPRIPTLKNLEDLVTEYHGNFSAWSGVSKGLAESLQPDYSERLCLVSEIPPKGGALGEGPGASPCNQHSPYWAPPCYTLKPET
Experiment: cell-based or functional assay

In order of falling “EC50 (nM) pSTAT5, NK, human PBMCs” value:
1. B1  2.42 nM
2. B2  0.195 nM
3. B4  0.0993 nM
4. B3  0.191 pM

B1 and B2 cannot be ordered by “EC50 (nM) pSTAT5, Treg, human PBMCs” value: under 0.1 pM for the first, under 0.1 pM for the second.

B3 and B4 cannot be ordered by “EC50 (nM) pSTAT5, Treg, human PBMCs” value: under 0.1 pM for the first, under 0.1 pM for the second.

In order of rising “Fold Max signal (% pSTAT5+) Treg/NK” value:
1. B1  4 fold
2. B2  5 fold
3. B3  7 fold
4. B4  8 fold

In order of falling “Max signal (% pSTAT5+), NK” value:
1. B2  14.1 % pSTAT5+
2. B1  14 % pSTAT5+
3. B3  7.96 % pSTAT5+
4. B4  7.35 % pSTAT5+

In order of rising “Max signal (% pSTAT5+), Treg” value:
1. B3  58.4 % pSTAT5+
2. B1  59.4 % pSTAT5+
3. B4  62.4 % pSTAT5+
4. B2  67.8 % pSTAT5+

B1 and B2 cannot be ordered by “fold EC50 NK/Treg” value: over 24200 fold for the first, over 1950 fold for the second.

B3 and B4 cannot be ordered by “fold EC50 NK/Treg” value: over 1.91 fold for the first, over 994 fold for the second.
